The subject of experiment [1] is renalase-1 and renalase-2. Nature of the experiment: renalase isoform specificity of the antibodies (ELISA / hybridoma screening). The class given is binding, human. The conditions noted are these: renalase-1 vs renalase-2. As for the experimental part:
Peptides were used as immunogens. The peptides generated ranged from 9 to 21 amino acids and corresponded to regions of the renalase-1 and renalase-2 proteins. […] Each peptide was conjugated to the adjuvant KLH via the cysteine and used to immunize 6 rabbits. Antiserum collected from each animal was screened for anti-renalase antibody titer by ELISA assay using both the relevant peptide (BSA-conjugate) or full length renalase-1 or 2. The antisera were also tested for their ability to detect endogenous renalase in tissue lysates by western blot. Using these screening criteria the animals producing antibodies with the preferred characteristics were selected. In some examples and for some peptides, several animals produced antibodies with the required specificity. […] Polyclonal antibodies raised against all of the peptides were generated by purification of total IgG from terminal bleeds by protein G chromatography followed by further purification on peptide affinity chromatography. Further and using standard procedures, lymphocytes from the spleens of selected animals were fused to myeloma cells for hybridoma generation. The hybridoma supernatants were screened for binding to both the peptides against which they were raised and secondarily screened against whole renalase protein. Selected hybridomas were sub-cloned and expanded for antibody purification. The monoclonal antibodies were purified from conditioned hybridoma culture supernatant by protein A affinity chromatography.
In general terms: In an ELISA, binding on a coated surface is turned into a signal by an enzyme label.

In experiment [2] the test system is PDACC (pancreatic ductal adenocarcinoma cells). Put plainly: PDACC viability with anti-RNLS antibodies, WST-1. The class given is cell-based, human. The note with it: 72 hrs. As for the experimental part:
FIG. 25, comprising FIGS. 25A through 25E, is a series of charts and images showing that inhibition of RNLS signaling is cytotoxic to cancer cells in vitro and in vivo. FIG. 25A is a chart showing relative cell viability following transient transfection of Panc1 cells using a RNLS-specific siRNA, or a non-specific control siRNA, and cell viability assayed 96 h later using the WST-1 reagent; n=6, ** indicates p<0.001. FIG. 25B is a chart showing relative cell viability when cells were treated with indicated antibodies for 72 hrs and cell viability determined using WST-1; m28-RNLS and m37-RNLS: monoclonal antibodies raised against RNLS peptide RP220, ab31291: Abcam polyclonal antibody raised against a partial sequence of RP-220; n=6, * indicates p<0.005. […] FIG. 25D is a chart showing tumor volume increase after athymic nude mice received subcutaneous injection of Panc1 cells transduced with RNLS shRNA (sh-RNLS) or control (sh-Control); tumor volume measured every […] for up to 30 days, n=6 each; * indicates p<0.05. FIG. 25E is chart showing tumor volume increase after nude mice were xenografted with BxPC3; tumor volume measured prior to treatment every 3-4 days with 2 mg/kg of either rabbit IgG as a negative control or with m28-RNLS, n=10, * indicates p<0.05.
Cell viability was assessed by trypan blue exclusion, and cells were counted using a BioRad TC10 automated counter.
For orientation: Tetrazolium assays rely on reduction of a dye to a coloured formazan, in cell work by metabolically active cells.

For another experiment, the system named is melanoma cell lines. Nature of the experiment: melanoma cells in culture, viability / growth. The class given is cell-based, human. As for the experimental part: Total cell number and percentage of live cells were assessed by trypan blue exclusion, and cells were counted using a BioRad TC10 automated cell counter. For additional studies, cell viability was determined using WST-1 reagent (Roche Diagnostics, Indianapolis, Ind., USA) according to the manufacturers' instruction. Absorbances were read using a microplate reader (Power Waves XS, BioTek Instruments, Winooski, Vt., USA).

Residue numbers refer to the chain shown, from its start. Read-outs that look alike come from different tables or passages of the source.

B1: 1F-26-1: anti-renalase monoclonal specific for renalase-1; heavy chain SEQ ID NO:25, light chain SEQ ID NO:26 (antibody)
heavy: METGLRWLLLVAVLKGVQCQSVKESEGGLFKPTDTLTLTCTVSGFSLSSYGVTWVRQAPGNGLEWIGLIGDRGTTFYASWAKSRSTITRNTNLNTVTLKMTRLTAADTATYFCARGSGYGARIWGPGTLVTVSSWQPKAPSVFPLAPCCGDTPSSTVTLGCLVKGYLPEPVTVTWNSGTLTNGVRTFPSVRQSSGLYSLSSVVSVTSSSQPVTCNVAHPATNTKVDKTVAPSTCSKPTCPPPELLGGPSVFIFPPKPKDTLMISRTPEVTCVVVDVSQDDPEVQFTWYINNEQVRTARPPLREQQFNSTIRVVSTLPIAHQDWLRGKEFKCKVHNKALPAPIEKTISKARGQPLEPKVYTMGPPREELSSRSVSLTCMINGFYPSDISVEWEKNGKAEDNYKTTPAVLDSDGSYFLYSKLSVPTSEWQRGDVFTCSVMHEALHNHYTQKSISRSPGK
light: MDTRAPTQLLGLLLLWLPGATFAQVLTQTPSPVSAAVGGTVTINCQSSQSVYKNNYLAWYQQKPGQPPKLLIYETSKLASGVPPRFSGSGSGTQFTLTISSVQCDDAATYYCQGGYSGVDFMAFGGGTEVVVKGDPVAPTVLIFPPSADLVATGTVTIVCVANKYFPDVTVTWEVDGTTQTTGIENSKTPQNSADCTYNLSSTLTLTSTQYNSHKEYTCKVTQGTTSVVQSFNRGDC
modifications: 1F-26-1 full length heavy chain amino acid; 1F-26-1 full length light chain amino acid
Regarding B1, in experiment [1], the renalase-type specificity result is given as “specific for renalase-1”.

B2: 1F-42-7: anti-renalase monoclonal specific for renalase-1; heavy chain SEQ ID NO:33, light chain SEQ ID NO:34 (antibody)
heavy: B1 heavy with S48T, S49T, F76Y, A81V, K82N, S83G, S133A
light: B1 light with V33M, V37L, S50T, K53N, A58S, A79S
modifications: 1F-42-7 full length heavy chain amino acid; 1F-42-7 full length light chain amino acid
For B2, the renalase-type specificity entry in experiment [1] was “specific for renalase-1”.

B3: m37-RNLS: rabbit anti-renalase monoclonal raised against RP-220; heavy chain SEQ ID NO:17, light chain SEQ ID NO:18 (antibody)
heavy: METGLRWLLLVAVLKGVQCQSVEESGGRLVTPGGSLTLTCTVSGFSLSDYAIIWVRQAPGKGLEYIAIIGSSGDTFYATWAKGRFTISKTSTTVDLKMTSLTAADTATYFCAPRYAGTTDYHDAFDPWGPGTLVTVSSGQPKAPSVFPLAPCCGDTPSSTVTLGCLVKGYLPEPVTVTWNSGTLTNGVRTFPSVRQSSGLYSLSSVVSVTSSSQPVTCNVAHPATNTKVDKTVAPSTCSKPTCPPPELLGGPSVFIFPPKPKDTLMISRTPEVTCVVVDVSQDDPEVQFTWYINNEQVRTARPPLREQQFNSTIRVVSTLPIAHQDWLRGKEFKCKVHNKALPAPIEKTISKARGQPLEPKVYTMGPPREELSSRSVSLTCMINGFYPSDISVEWEKNGKAEDNYKTTPAVLDSDGSYFLYSKLSVPTSEWQRGDVFTCSVMHEALHNHYTQKSISRSPGK
light: MDTRAPTQLLGLLLLWLPGARCAEVVMTQTPASMEAPMGGTVTIKCQASQNIYNYLSWYQQKPGQPPKLLVYKASTLTSGVPSRFKGSGSGTQFTLTISDLECADAATYYCQINYSIYNHYNIIFGGGTEVVVKGDPVAPTVLIFPPSADLVATGTVTIVCVANKYFPDVTVTWEVDGTTQTTGIENSKTPQNSADCTYNLSSTLTLTSTQYNSHKEYTCKVTQGTTSVVQSFNRGDC
modifications: 1D-37-10 full length heavy chain amino acid; 1D-37-10 full length light chain amino acid
On to B3, for which the “PDACC growth / viability” value in experiment [2] was “inhibitory effects”. Also, the “melanoma cell viability / growth in culture” value is recorded as “decreased the viability of all (total of 5) melanoma cell lines tested” with melanoma cell lines, “inhibit melanoma cells in culture” in the experiment with melanoma cell lines (listed as 1D-37-10) and “inhibit melanoma cell growth” with melanoma cell lines (listed as D-37-10). Besides, the renalase-type specificity result in experiment [1] is “recognize renalase-1 and renalase-2”.

B4: 3A-5-2: anti-renalase monoclonal specific for renalase-2; heavy chain SEQ ID NO:41, light chain SEQ ID NO:42 (antibody)
heavy: METGLRWLLLVAVLKGVQCQSLEESGGRLVTPGTPLTLTCTVSGFSLNNYHIYWVRQAPGKGLEYIGIIFNGGTYYARWTKGRFTISKTSTTVDLKMTSLTTEDTATYFCARGDGIWGPGTLVTVSLGQPKAPSVFPLAPCCGDTPSSTVTLGCLVKGYLPEPVTVTWNSGTLTNGVRTFPSVRQSSGLYSLSSVVSVTSSSQPVTCNVAHPATNTKVDKTVAPSTCSKPTCPPPELLGGPSVFIFPPKPKDTLMISRTPEVTCVVVDVSQDDPEVQFTWYINNEQVRTARPPLREQQFNSTIRVVSTLPIAHQDWLRGKEFKCKVHNKALPAPIEKTISKARGQPLEPKVYTMGPPREELSSRSVSLTCMINGFYPSDISVEWEKNGKAEDNYKTTPAVLDSDGSYFLYSKLSVPTSEWQRGDVFTCSVMHEALHNHYTQKSISRSPGK
light: MDTRAPTQLLGLLLLWLPGATFAQVLTQTPASVSAAVGGTVTINCQASQSVFNNNYLAWYQQKPGQPPKRLIYSASTLASGVSSRFKGSGSGTEFTLTMSGVECDDAATYYCAGSFDCNSGDCVAFGGGTEVVVKGDPVAPTVLIFPPAADQVATGTVTIVCVANKYFPDVTVTWEVDGTTQTTGIENSKTPQNSADCTYNLSSTLTLTSTQYNSHKEYTCKVTQGTTSVVQSFNRGDC
modifications: 3A-5-2 full length heavy chain amino acid; 3A-5-2 full length light chain amino acid
As to B4, in experiment [1], the renalase-type specificity entry is given as “specific for renalase-2”.

The record behind these values is patent publication US20210355235A1, “Compositions and Methods For Treating Cancer with Anti-Renalase antibodies and Anti-PD1 antibodies” (YALE UNIVERSITY, priority 2017, published 2021).
